Assay results reported in the nanobody polyreactivity screen of Harvey et al. (2022).

test: yeast display, Sf9 membrane polyspecificity reagent, FACS + sequencing; frameworks hold sequencing errors
Summary of the method: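 Galactose-induced (36–48 hours) yeast carrying a synthetic nanobody display library were exposed to 10% biotinylated, detergent-solubilized Sf9 membrane reagent at 4 °C for 1 hour. FACS followed streptavidin microbead enrichment, using low and high (top ~1%) gates for expression (anti-HA) and reagent binding (streptavidin). Colony PCR, MiSeq 2 × 250 sequencing and CDR-length filtering followed. Labels for polyreactivity reflect the gate of origin.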

Row | Sequence | polyreactivity (PSR sort gate)
1 | QVQLVESGGGLVQAGGSLRLSCAASGITFEVYAMAWYRQAPATERELVAVITSVGSTNYADSVKGRFTISRDNAKNTVYLQMNSLKTEDNAVYYCAGEKWTVRRFNPYTYYRYDYWGQGTQVTVSS | low polyreactivity
2 | QVQLVESGGGLVQAGGSLRLSCAASGITFEVYDMGWYRQAPGKERELVAAITWSAGRTYYADSVKGRFTISRDNAKNTVYLQMNSLKPEDTAVYYCAAEVYYYYRTYSYIWNRVDYDYWGQGTQVTVSS | low polyreactivity
3 | QVQLVESGGGLVQAGGSLRLSCAASGITFEYYAMGWYRQAPGKERELVAAITWSGGITYYADSVKGRFTISRDNAKNTVYLQMNSLKPEDTAVYYCNVYVSAGEEDEYWGQGTQVTVSS | low polyreactivity
4 | QVQLVESGGGLVQAGGSLRLSCAASGITFFGKYAMGWYRQAPGKERELVAAISWSGGRTYYADSVKGRFTISRDNAKNTVYLQMNSLKPEDTAVYYCAVYPRDAERYGYWGQGTQVTVSS | high polyreactivity
5 | QVQLVESGGGLVQAGGSLRLSCAASGITFFGYAMGWYRQAPGKERELVAAISYSGGSTYYADSVKGRFTISRDNAKNTVYLQMNSLKPEDTAVYYCNARQAGTRYKYGYYGRYYWGQGTQVTVSS | high polyreactivity
6 | QVQLVESGGGLVQAGGSLRLSCAASGITFFLYAMGWYRQAPGKERELVAVISASGGSTYYADSVKGRFTISRDNAKNTVYLQMNSLKPDDTAVYYCNAYGAFIGYDSWGQGTQVTVSS | high polyreactivity
7 | QVQLVESGGGLVQAGGSLRLSCAASGITFFRNAMGWYRQAPGKERELVAAISRGGGSTYYADSVKGRFTISRDNAKNTVYLQMNSLKPEDTAVYYCAEYKYGTGVKMDYWGQGTQVTVSS | high polyreactivity
8 | QVQLVESGGGLVQAGGSLRLSCAASGITFFRYAMGWYRQAPGKEREFVAAISGRGGSTYYADSVKGRFTISRDNAKNTVYLQMNSLKPEDTAVYYCATRRSYLADYWGQGTQVTVSS | high polyreactivity
9 | QVQLVESGGGLVQAGGSLRLSCAASGITFFTYGLGWYRQAPGKERELVASINWSGGTYYADSVKGRFTISRDKAKNTVYLQMNSLKPEDTAVYYCAAETHVESGSRDFYTEDYWGQGTQVTVSS | low polyreactivity
10 | QVQLVESGGGLVQAGGSLRLSCAASGITFFWNAMGWYRQAPGKERELVAAISSGAGTTYADSVKGRFTISRDNAKNTVYLQMNSLKPEDTAVYYCAARRYRYAYGPYNYWGQGTQVTVSS | low polyreactivity
11 | QVQLVESGGGLVQAGGSLRLSCAASGITFGAYAMGWYRQAPGKERELVASISSSGSTYADSVKGRFTISRDNAKNTVYLQMNSLKPEDTGVYYCNAVGFQANDYNYWGQGTQVTVSS | low polyreactivity
12 | QVQLVESGGGLVQAGGSLRLSCAASGITFGDNTMGWYRQAPGKERELVAAITYSSTSTYYADSVKGRFTISRDNPKNTVYLQMNSLKPEDTAVYYCAAEGPVDVVSTDYDYWGQGTQVTVSS | low polyreactivity
13 | QVQLVESGGGLVQAGGSLRLSCAASGITFGDYAMGWNRQAPGKERELVAGINWSGDGTYYADSVKGRFTISRDNAKITVYLQMYSLKPEDTAVYYCAAETFYDYGGYDYWGQVTQVTVSS | low polyreactivity
14 | QVQLVESGGGLVQAGGSLRLSCAASGITFGDYTMGWYRQAPGKERELVAGINWSGDGTYYADSVKGRFTISRDNAKNTVYLQMNSLKPEDTAVYYCAAETFYDYGGYDYWGQGTQVTVSS | low polyreactivity
15 | QVQLVESGGGLVQAGGSLRLSCAASGITFGNYAMGWYRQAPGKERELVAAISQSSGRTYYADSVKGRFTISRDNAKNTVYLQMNSLKPEDTAVYYCAARTRGSSRGDYDYWGQGTQVTVSS | high polyreactivity
16 | QVQLVESGGGLVQAGGSLRLSCAASGITFGPNAMGWYRQAPGKERELVAAISWRGGSTYYADSVKGRFTISRDYAKNTVYLQMNSLKPEDTAVYYCAKVQIPASYIRYDYWGQGTQVTVSS | low polyreactivity
17 | QVQLVESGGGLVQAGGSLRLSCAASGITFGPYAMGWYRQAPGKERELVAAISSGGRTNYADSVKGRFTISRDNAKNTVYLQMNSLKPEDTAVYYCAARFAYFREYGTYYYWGQGTQVTVSS | high polyreactivity
18 | QVQLVESGGGLVQAGGSLRLSCAASGITFGRDAMGWYRQARGKERELVAAISRGSGSTYSADSVKGRFTISRDNAKNTVYLQMHSLKPEDTAVYYCGKVVRVGMGYWGQGTQVTVSS | high polyreactivity
19 | QVQLVESGGGLVQAGGSLRLSCAASGITFGRNTMGWSRQAPGKERELVAAIDSGGNTYADSVKGRFTISRDNAKNTVYLQMNSLKPEDTAVYYCAVDGGEFSSYGYWGQGTQVTVSS | low polyreactivity
20 | QVQLVESGGGLVQAGGSLRLSCAASGITFGRNTMGWYRQAPGKERELVAAIDSGGNTYADSVKGRFTISRDNAKNTVYLQMNSLKPEDTAVYYCATVADEPRAYSGYEESDYWGQGTQVTVSS | low polyreactivity
21 | QVQLVESGGGLVQAGGSLRLSCAASGITFGRNTMGWYRQAPGKERELVAAIDSGGNTYADSVKGRFTISRDNAKNTVYLQMNSLKPEDTAVYYCDVDGGEFSSYGYWGQGTLVTVSS | low polyreactivity
22 | QVQLVESGGGLVQAGGSLRLSCAASGITFGRYAMGSYRQPPGKEREFVAAISWSGGSTYYADSVKGRFTISLDNATNPVYLQINSLKPEDTAVYYCAVEWYYTSYHIRVYRDNYWGQGTQVTVSS | high polyreactivity

Row | Sequence | polyreactivity (PSR sort gate)
23 | QVQLVESGGGLVQAGGSLRLSCAASGITFGRYAMGWYRQAPGKERELVAAISRGSGSTYYADSVKGRFTISRDNAKNTVYLQMNSLKPEDTAVYYCAKVVRVGMGYWGQGTQVTVSS | high polyreactivity
24 | QVQLVESGGGLVQAGGSLRLSCAASGITFGTYAMGWYRQAPGKERELVAAISQSSGRTYYADSVKGRFTISRDNAKNSVYLQMNSLKPEDTAVYYCADRTRGSSRGDYDYWGQGTQVTVSS | high polyreactivity
25 | QVQLVESGGGLVQAGGSLRLSCAASGITFGVNTMGWYRQAPGKERELVAAITWRGGSTYYADSVKGRFTISRDNAQNTVYLQMNSLIPEDTAVYYCAAQPIWPGGQELDYWGQGTQVTVSS | low polyreactivity
26 | QVQLVESGGGLVQAGGSLRLSCAASGITFGYYAMGWSRQAPGKERELVAAISWSGGRTYYADSVKGRFTMSRDNAKNTVYLQMNSLKPEDTAVYYCAADYWYYRGGYPMDYWGQGTQVTVSS | high polyreactivity
27 | QVQLVESGGGLVQAGGSLRLSCAASGITFGYYTMGWYRQAPGKEREFDAAISSTGGTYYADSVKGRFTISRDNAQNTVYLQMNSLKPEDTAVYYCAATFIQVVVNVQLYDYDYWGQGTQVTVSS | low polyreactivity
28 | QVQLVESGGGLVQAGGSLRLSCAASGITFHANAMGWNRQARGKERELVPAINWSGGSTYYADSVKGRFTISRDNAKNTVYLQMNSLKPEDTAVYYCAAELWGLFDYWGQGTQVTVSS | low polyreactivity
29 | QVQLVESGGGLVQAGGSLRLSCAASGITFHSYAMGWYRQAPGKERELVAGISSGGSTNYADSVKGRFTISRDNAKNTVYLQMNSLKPEDTAVYYCAVLNHRVDSVLTRYYYWGQGTQVTVSS | low polyreactivity
30 | QVQLVESGGGLVQAGGSLRLSCAASGITFILYDMGWYRQAPGKERELVAGITSGDGDSTYYADSVKGRFTISRDNAKNTVYLQMNSLKPEDTAVYYCAADFTVGYYREYYYWGQGTQVTVSS | low polyreactivity
31 | QVQLVESGGGLVQAGGSLRLSCAASGITFIRYAMGWYRQAPGKERELVAAISKDGDSTYYADSVKGRFTISRDNAKNTVYLQMNSLKPEDSGVYYCAAQRYSKALYNYWGQGTQVTVSS | high polyreactivity
32 | QVQLVESGGGLVQAGGSLRLSCAASGITFIRYAMGWYTQAPGKERELVAAIDRSGGSTYYADSVKGRFTISRDTAKNTVYLQMNSLKPEDTAVYYCAARRVRGLDYWGQGTQVTVSS | high polyreactivity
33 | QVQLVESGGGLVQAGGSLRLSCAASGITFKAYAMGWYRQAPGKERELVAAITGSGGRTYYADSVKGRFTISRDNAKNTVYLQMNSLKPEDTAVYYCAKTSSWYLRPKYYYWGQGTQVTVSS | high polyreactivity
34 | QVQLVESGGGLVQAGGSLRLSCAASGITFKFYAMGWYRQAPGKERELVAVITSGGSTYYADSVKGRFTISRDNAKNTVYLQMTSLKPEDTAVFYCASGGNGLYRAYPFYYWGQGTQVTVSS | high polyreactivity
35 | QVQLVESGGGLVQAGGSLRLSCAASGITFKGYTMGWYRQAPGKERELVATISRGGRTYAVSVKGRFTISRDNAKNTVYLQMNSLKPEDTAVYYCAADKYWAQNDYWGQGTQVTVSS | low polyreactivity
36 | QVQLVESGGGLVQAGGSLRLSCAASGITFKPYGMGWYRQAPGKERELVATISWSGGSTNYADSVKGRFTISRDNAKNTVYLQMNILKPEDTAVYYCAATSYSHTEIRYDYWGQGTQVTVSS | low polyreactivity
37 | QVQLVESGGGLVQAGGSLRLSCAASGITFKRYAMGWYRQAPRKERELVAAITTSGGSTYYADSVKGRFTNSRDNAKNTVYLLMNSLKPEDTAVNYCNAEDYWGKYYYWGQGTQVTVSS | low polyreactivity
38 | QVQLVESGGGLVQAGGSLRLSCAASGITFKRYTMGWYRQAPGKERELVAANSRSGGSTYYADSVKGRFTISRDTAKNTVYLQMNSLKPEDTAVYYCAAAVGGYNVAYDYWGQGTQVTVSS | high polyreactivity
39 | QVQLVESGGGLVQAGGSLRLSCAASGITFKSNAMGWYRQAPGKERELVAAISRRASSTYYADSVKGRFTISRDNAKNTVYLQMNSLKPEDTAVYYCAARSTVLATVSYPFGRYYWGQGTQVTVSS | high polyreactivity
40 | QVQLVESGGGLVQAGGSLRLSCAASGITFKYYAMGWYRQAPGKERELVAAISRSGGTTYYADSVKGRFTISRDNAKNTVYLQMNSLKPEDTAVYYCNKYTHYYDYDYWGQGTQVTVSS | high polyreactivity
41 | QVQLVESGGGLVQAGGSLRLSCAASGITFKYYTMGWYRQAPGKERELVAAITADTGTTYYADSVKGRFTISRDNAKNTVYLQMNSLKPEDTAVYYCATRDVFYDDDYWGQGTQVTVSS | high polyreactivity
42 | QVQLVESGGGLVQAGGSLRLSCAASGITFKYYTMGWYRQAPGKERELVAAITSRAGRTYADSVKGRFTISRDNAKNTVYLQMNSLKPEDTAVYYCARRVDYPYAYDYWGQGTQVTVSS | high polyreactivity
43 | QVQLVESGGGLVQAGGSLRLSCAASGITFLGNAMGWYRQAPGKERELVAAISASGGRTYYADSVKGRFTISRDNAKNTVYLQMNSLKPEDTPVYYCAAASKPWYYYWGQGTQVTVSS | high polyreactivity
